Reference: the MegaScale stability set (Tsuboyama et al. 2023)

B1: r16_88_TrROS_Hall (parent)
chain: EVIELKIKFKTPEQREKLKEIAKKLNAEVVEEKDGEVIIRFKTPEQAERALKEAEKLGAEVEL

Variants of: B1
Assay: folding stability dG (cDNA display proteolysis); higher = more stable
Details: PBS, room temperature

Variant	folding stability dG [kcal/mol]
K6I	4.47
L57F	4.33
L57H	4.26
L57Q	4.25
L57G	3.96
L57V	4.5
L57Y	4.28
L57D	4.08
L57N	4.35
L57S	4.26
L57I	4.43
E36P	4.07
E36L	4.61
E36C	4.39
I21C	4.31
I21E	4
I21M	4.43
I21T	4.33
I21P	1.81
I21H	4.29
I21D	3.4
I21S	4.17
E13G	4.51
E13P	4.54

Variant	folding stability dG [kcal/mol]
E13A	4.33
E13R	4.58
E13W	4.85
E13T	4.32
E13N	4.57
A47P	3.25
A47H	4.42
A47W	4.78
A47D	3.16
V30G	4.26
V30S	4.51
V30R	4.42
V30K	4.48
V30M	4.49
V30N	4.52
V30Q	4.3
V30P	4.07
V30I	4.46
V30E	4.59
L63H	4.59
L63G	4.38
L63C	4.44
L63Y	4.35
V29H	4.53

Variant	folding stability dG [kcal/mol]
V29Q	4.76
V29R	4.57
V29E	4.47
V29T	4.21
A59V	4.65
A59W	4.21
A59F	4.59
A59I	4.01
A59K	4.31
A59P	4.55
A59M	4.39
E32G	4.46
E32S	4.48
E32P	4.54
E32Q	4.62
E32T	4.52
E32L	4.31
E32I	4.39
E55L	4.45
E55I	4.46
E55R	4.57
E55A	4.43
Q14R	4.42
Q14H	4.2

Variant	folding stability dG [kcal/mol]
Q14S	4.19
E20G	4.32
E20W	4.75
E20Q	4.22
E20S	4.41
E20Y	4.95
E20H	4.5
E20K	4.39
E20L	4.87
E20V	4.47
E20D	4.26
K8A	4.09
K8M	4.48
K8G	4.05
E45C	4.77
E45K	4.42
E45Y	4.73
E45L	4.29
E45A	4.33
E45I	4.5
E45W	4.37
E45R	4.37
E45H	4.08
P44T	4.46

Variant	folding stability dG [kcal/mol]
P44E	4.1
P44N	4.55
P44V	4.35
P44W	4.58
K23S	4.55
K23N	4.34
K23T	4.63
K23A	4.21
L5T	4.04
L5F	4.91
L5R	4.4
A22F	4.65
A22Q	4.39
A22L	4.62
A22K	3.78
A22N	4.12
Q46E	4.18
Q46V	4.38
Q46N	4.26
Q46C	4.41
Q46W	4.2
Q46S	4.47
Q46K	4.21
Q46F	4.43

Variant	folding stability dG [kcal/mol]
Q46G	4.48
K42A	4.1
K42G	4.03
K42N	4.18
K42H	4.1
K42D	4.01
K24D	4.39
K24G	4.47
K24Q	4.56
K24S	4.47
K24I	4.49
K24M	4.4
K24N	4.46
K24F	4.67
K24A	4.28
E31Y	4.46
E31V	4.37
E31G	4.41
E31R	4.35
E31N	4.49
E1P	4.22
E1Q	4.25
E1N	4.33
E1W	4.18

Variant	folding stability dG [kcal/mol]
E1L	4.31
R40H	4.04
R40M	4.64
R40I	4.47
R40A	4.3
R40Q	4.07
R40G	4.15
R40W	4.77
R40C	4.37
D34W	4.32
D34E	4.44
D34M	4.5
D34S	4.25
D34G	4.46
V2E	4.13
V2M	4.45
V2A	4.3
V2Y	4.53
V2R	4.21
R49N	4.35
R49V	4.5
A27G	4.37
A27N	3.76
